Test results as given in patent publication US20160297889A1 (TORAY INDUSTRIES, published 2016).

T1: CAPRIN-1 protein expressed on the membrane surface of human cancer cells (human, UniProt Q14444 2-709)
T1 sequence (looked up): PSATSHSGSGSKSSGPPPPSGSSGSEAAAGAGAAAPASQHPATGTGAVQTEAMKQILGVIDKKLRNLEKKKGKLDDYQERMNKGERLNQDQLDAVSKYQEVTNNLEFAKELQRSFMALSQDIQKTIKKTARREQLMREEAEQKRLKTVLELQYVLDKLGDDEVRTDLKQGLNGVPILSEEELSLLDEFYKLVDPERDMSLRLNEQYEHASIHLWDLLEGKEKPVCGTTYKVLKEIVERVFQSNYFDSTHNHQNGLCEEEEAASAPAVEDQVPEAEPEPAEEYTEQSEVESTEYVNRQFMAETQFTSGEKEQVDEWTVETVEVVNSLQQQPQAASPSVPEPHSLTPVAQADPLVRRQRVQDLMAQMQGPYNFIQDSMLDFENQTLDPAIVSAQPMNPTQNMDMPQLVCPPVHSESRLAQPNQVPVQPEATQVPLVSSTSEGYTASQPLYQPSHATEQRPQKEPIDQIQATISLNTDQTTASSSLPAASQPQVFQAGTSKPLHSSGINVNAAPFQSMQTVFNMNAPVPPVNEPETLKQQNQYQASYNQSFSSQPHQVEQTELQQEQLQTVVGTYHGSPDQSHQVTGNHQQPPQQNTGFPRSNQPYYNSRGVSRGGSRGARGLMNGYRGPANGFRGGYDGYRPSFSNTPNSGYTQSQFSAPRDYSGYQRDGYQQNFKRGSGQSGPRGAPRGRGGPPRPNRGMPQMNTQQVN


biological target: T1, CAPRIN-1 protein expressed on the …; test: cell-based or functional assay

Binder	ADCC cytotoxic activity (51Cr release) on 22Rv1 [%]	ADCC cytotoxic activity (51Cr release) on A-673 [%]	ADCC cytotoxic activity (51Cr release) on BT-474 [%]	ADCC cytotoxic activity (51Cr release) on Caki-2 [%]	ADCC cytotoxic activity (51Cr release) on FaDu [%]	ADCC cytotoxic activity (51Cr release) on G-361 [%]	ADCC cytotoxic activity (51Cr release) on HEC-1-A [%]	ADCC cytotoxic activity (51Cr release) on HT-29 [%]	ADCC cytotoxic activity (51Cr release) on HT-1080 [%]	ADCC cytotoxic activity (51Cr release) on HT-1376 [%]
humanized antibody #9 (antibody, V domains shown) VH: EQSLVESGGGLVQPGGSLRLSCAASGFSLSSHSLGWVRQAPGKGLEWIGDIRSGGSAYYANWAKGRFTISRDNSKNTLYLQMNSLRAEDTAVYYCTRTNGPSDLTNRLDLWGQGTLVTVSS VL: DIVLTQSPSSLSASVGDRVTINCQASQSLYNNENLAWFQQKPGKVPKRLIYGASTLASGVSSRFSGSGSGTEFTLTISSLQCEDFAIYYCLGEFSCGSADCFAFGGGTKVEIK	≥ 38	≥ 40	≥ 46	≥ 26	≥ 35	≥ 15	≥ 40	≥ 35	≥ 20	≥ 28
human-rabbit chimeric anti-CAPRIN-1 antibody (antibody, V domains shown) VH: QSLEESGGRLVTPGTPLTLTCTASGFSLSSHSLGWVRQAPGKGLEWIGDIRSGGSAYYANWAKGRFTISRTSTTVALKMTSLTTEDTATYFCTRTNGPSDLTNRLDLWGQGTLVTVSS VL: QVLTQTPSSVSAAVGGTVTINCQASQSLYNNENLAWFQQKPGQPPKRLIYGASTLASGVSSRFKGSGSGTQFTLTIGDVQCDDAAIYYCLGEFSCGSADCFAFGGGTEVVVK	≥ 38	≥ 40	≥ 46	≥ 26	≥ 35	≥ 15	≥ 40	≥ 35	≥ 20	≥ 28
humanized antibody #8 (antibody, V domains shown) VH: QSLVESGGGLVQPGGSLRLSCAASGFSLSSHSLGWVRQAPGKGLEWIGDIRSGGSAYYANWAKGRFTISRTSSKNTVYLQMNSLRAEDTAVYFCTRTNGPSDLTNRLDLWGQGTLVTVSS VL: QVLTQSPSSLSASVGDRVTINCQASQSLYNNENLAWFQQKPGKVPKRLIYGASTLASGVSSRFSGSGSGTEFTLTISSLQCEDFAIYYCLGEFSCGSADCFAFGGGTKVEIK	≥ 38	≥ 40	≥ 46	≥ 26	≥ 35	≥ 15	≥ 40	≥ 35	≥ 20	≥ 28

same assay, conditions: not given

Binder	ADCC cytotoxic activity (51Cr release) on Hep3B [%]	ADCC cytotoxic activity (51Cr release) on IM-9 [%]	ADCC cytotoxic activity (51Cr release) on MDA-MB-361 [%]	ADCC cytotoxic activity (51Cr release) on NCI-H2452 [%]	ADCC cytotoxic activity (51Cr release) on NCI-N87 [%]	ADCC cytotoxic activity (51Cr release) on NT/D1 [%]	ADCC cytotoxic activity (51Cr release) on OCI-AML5 [%]	ADCC cytotoxic activity (51Cr release) on OE33 [%]	ADCC cytotoxic activity (51Cr release) on Panc10.5 [%]	ADCC cytotoxic activity (51Cr release) on QG56 [%]
humanized antibody #9 (antibody, V domains shown) VH: EQSLVESGGGLVQPGGSLRLSCAASGFSLSSHSLGWVRQAPGKGLEWIGDIRSGGSAYYANWAKGRFTISRDNSKNTLYLQMNSLRAEDTAVYYCTRTNGPSDLTNRLDLWGQGTLVTVSS VL: DIVLTQSPSSLSASVGDRVTINCQASQSLYNNENLAWFQQKPGKVPKRLIYGASTLASGVSSRFSGSGSGTEFTLTISSLQCEDFAIYYCLGEFSCGSADCFAFGGGTKVEIK	≥ 21	≥ 27	≥ 40	≥ 31	≥ 34	≥ 25	≥ 15	≥ 30	≥ 24	≥ 38
human-rabbit chimeric anti-CAPRIN-1 antibody (antibody, V domains shown) VH: QSLEESGGRLVTPGTPLTLTCTASGFSLSSHSLGWVRQAPGKGLEWIGDIRSGGSAYYANWAKGRFTISRTSTTVALKMTSLTTEDTATYFCTRTNGPSDLTNRLDLWGQGTLVTVSS VL: QVLTQTPSSVSAAVGGTVTINCQASQSLYNNENLAWFQQKPGQPPKRLIYGASTLASGVSSRFKGSGSGTQFTLTIGDVQCDDAAIYYCLGEFSCGSADCFAFGGGTEVVVK	≥ 21	≥ 27	≥ 40	≥ 31	≥ 34	≥ 25	≥ 15	≥ 30	≥ 24	≥ 38
humanized antibody #8 (antibody, V domains shown) VH: QSLVESGGGLVQPGGSLRLSCAASGFSLSSHSLGWVRQAPGKGLEWIGDIRSGGSAYYANWAKGRFTISRTSSKNTVYLQMNSLRAEDTAVYFCTRTNGPSDLTNRLDLWGQGTLVTVSS VL: QVLTQSPSSLSASVGDRVTINCQASQSLYNNENLAWFQQKPGKVPKRLIYGASTLASGVSSRFSGSGSGTEFTLTISSLQCEDFAIYYCLGEFSCGSADCFAFGGGTKVEIK	≥ 21	≥ 27	≥ 40	≥ 31	≥ 34	≥ 25	≥ 15	≥ 30	≥ 24	≥ 38

same assay, conditions: not given

Binder	ADCC cytotoxic activity (51Cr release) on RD-ES [%]	ADCC cytotoxic activity (51Cr release) on RPM11666 [%]	ADCC cytotoxic activity (51Cr release) on Ramos [%]	ADCC cytotoxic activity (51Cr release) on SKOV3 [%]	ADCC cytotoxic activity (51Cr release) on T24 [%]	ADCC cytotoxic activity (51Cr release) on TGBC14TKB [%]	ADCC cytotoxic activity (51Cr release) on TT [%]	ADCC cytotoxic activity (51Cr release) on U-87MG [%]
humanized antibody #9 (antibody, V domains shown) VH: EQSLVESGGGLVQPGGSLRLSCAASGFSLSSHSLGWVRQAPGKGLEWIGDIRSGGSAYYANWAKGRFTISRDNSKNTLYLQMNSLRAEDTAVYYCTRTNGPSDLTNRLDLWGQGTLVTVSS VL: DIVLTQSPSSLSASVGDRVTINCQASQSLYNNENLAWFQQKPGKVPKRLIYGASTLASGVSSRFSGSGSGTEFTLTISSLQCEDFAIYYCLGEFSCGSADCFAFGGGTKVEIK	≥ 31	≥ 30	≥ 15	≥ 27	≥ 30	≥ 25	≥ 30	≥ 24
human-rabbit chimeric anti-CAPRIN-1 antibody (antibody, V domains shown) VH: QSLEESGGRLVTPGTPLTLTCTASGFSLSSHSLGWVRQAPGKGLEWIGDIRSGGSAYYANWAKGRFTISRTSTTVALKMTSLTTEDTATYFCTRTNGPSDLTNRLDLWGQGTLVTVSS VL: QVLTQTPSSVSAAVGGTVTINCQASQSLYNNENLAWFQQKPGQPPKRLIYGASTLASGVSSRFKGSGSGTQFTLTIGDVQCDDAAIYYCLGEFSCGSADCFAFGGGTEVVVK	≥ 31	≥ 30	≥ 15	≥ 27	≥ 30	≥ 25	≥ 30	≥ 24
humanized antibody #8 (antibody, V domains shown) VH: QSLVESGGGLVQPGGSLRLSCAASGFSLSSHSLGWVRQAPGKGLEWIGDIRSGGSAYYANWAKGRFTISRTSSKNTVYLQMNSLRAEDTAVYFCTRTNGPSDLTNRLDLWGQGTLVTVSS VL: QVLTQSPSSLSASVGDRVTINCQASQSLYNNENLAWFQQKPGKVPKRLIYGASTLASGVSSRFSGSGSGTEFTLTISSLQCEDFAIYYCLGEFSCGSADCFAFGGGTKVEIK	≥ 31	≥ 30	≥ 15	≥ 27	≥ 30	≥ 25	≥ 30	≥ 24
